Test [1] has as its target T1, His-tagged mAKAP 1286-1833 (bacterially expressed) (UniProt Q9WVC7 1286-1833).
T1 chain: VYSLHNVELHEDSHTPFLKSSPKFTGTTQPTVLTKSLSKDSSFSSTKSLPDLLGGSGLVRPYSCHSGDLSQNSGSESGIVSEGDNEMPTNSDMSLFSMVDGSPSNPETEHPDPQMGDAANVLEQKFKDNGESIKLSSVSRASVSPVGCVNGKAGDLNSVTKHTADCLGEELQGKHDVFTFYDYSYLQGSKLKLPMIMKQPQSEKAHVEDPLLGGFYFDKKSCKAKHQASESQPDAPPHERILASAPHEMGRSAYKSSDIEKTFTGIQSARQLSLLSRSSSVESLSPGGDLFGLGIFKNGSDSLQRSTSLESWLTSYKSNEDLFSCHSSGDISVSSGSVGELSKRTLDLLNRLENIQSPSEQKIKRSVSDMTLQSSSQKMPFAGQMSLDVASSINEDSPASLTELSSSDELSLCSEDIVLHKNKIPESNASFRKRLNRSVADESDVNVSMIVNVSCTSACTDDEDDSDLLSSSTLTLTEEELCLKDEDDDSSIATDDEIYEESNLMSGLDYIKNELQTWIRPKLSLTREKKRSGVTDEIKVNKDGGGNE
The test is described as follows: SPR; unphosphorylated RSK3.

Test [2] has as its target T2, His-tagged mAKAP 1286-1833 (bacterially expressed) (UniProt Q9WVC7 1286-1833).
T2 construct: Covalently immobilised by amine coupling on a CM5 chip, 200 resonance units; not shown: His tag (pET30 parent vector)
T2 sequence (looked up): T1 chain
Briefly: SPR (BIAcore T100), His-mAKAP 1286-1833 immobilised, phospho-His-RSK3 as analyte. The text has this: Figure 7: FIG. 7. The p90 ribosomal S6 kinase type 3 (RSK3) binding site within muscle A-kinase anchoring protein (mAKAP). A, mAKAP domain structure. […] All fragments are numbered per mAKAPα. The grey bar indicates the RSK3 binding site. B-F, Specific tag antibodies were used to immunoprecipitate myc-tagged mAKAPβ and HA-tagged p90 ribosomal S6 kinase (RSK) proteins (see FIG. 4A) co-expressed in either HEK293 (B) or COS-7 (C-F) cells (n=3) for all panels. G, Surface plasmon resonance using purified bacterially expressed proteins. […] Each curve was repeated 3 times using different protein preparations.
Surface Plasmon Resonance: SPR analysis was performed using a BIAcore T100. […] (Biacore amine coupling kit) to the surface of a sensor chip (BIAcore type CM5). His-RSK3 analytes (6.25-200 nmol/L) in HBS buffer (10 mmol/L Hepes, pH 7.4, 150 mmol/L NaCl, and 0.005% Surfactant P20) were injected at a flow rate of 30 μL/min for 5 minutes, followed by buffer alone for another 5 minutes. Sensorgrams were processed by BIAcore T100 evaluation software.

In test [3] the target is T1, His-tagged mAKAP 1286-1833 (bacterially …). The test is described as follows: SPR; ERK- and PDK1-phosphorylated RSK3.
For test [4] the target is unchanged. The test is described as follows: SPR; ERK-phosphorylated RSK3.

These results are taken from patent US9132174 (ANCHORED RSK3 INHIBITORS, dated 2015).

B1: His-tagged full-length RSK3, unphosphorylated (bacterially expressed) (enzyme)
chain: MDLSMKKFAVRRFFSVYLRRKSRSKSSSLSRLEEEGVVKEIDISHHVKEGFEKADPSQFELLKVLGQGSYGKVFLVRKVKGSDAGQLYAMKVLKKATLKVRDRVRSKMERDILAEVNHPFIVKLHYAFQTEGKLYLILDFLRGGDLFTRLSKEVMFTEEDVKFYLAELALALDHLHSLGIIYRDLKPENILLDEEGHIKITDFGLSKEAIDHDKRAYSFCGTIEYMAPEVVNRRGHTQSADWWSFGVLMFEMLTGSLPFQGKDRKETMALILKAKLGMPQFLSGEAQSLLRALFKRNPCNRLGAGIDGVEEIKRHPFFVTIDWNTLYRKEIKPPFKPAVGRPEDTFHFDPEFTARTPTDSPGVPPSANAHHLFRGFSFVASSLIQEPSQQDLHKVPVHPIVQQLHGNNIHFTDGYEIKEDIGVGSYSVCKRCVHKATDTEYAVKIIDKSKRDPSEEIEILLRYGQHPNIITLKDVYDDGKFVYLVMELMRGGELLDRILRQRYFSEREASDVLCTITKTMDYLHSQGVVHRDLKPSNILYRDESGSPESIRVCDFGFAKQLRAGNGLLMTPCYTANFVAPEVLKRQGYDAACDIWSLGILLYTMLAGFTPFANGPDDTPEEILARIGSGKYALSGGNWDSISDAAKDVVSKMLHVDPHQRLTAMQVLKHPWVVNREYLSPNQLSRQDVHLVKGAMAATYFALNRTPQAPRLEPVLSSNLAQRRGMKRLTSTRL
B1: binding in test [1] was characterised by a dissociation constant (Kd) of 1.6 nM.

B2: ERK and PDK1-phosphorylated His-RSK3 (enzyme)
chain: B1 chain
modifications: phosphorylated in vitro with ERK2 and PDK1; sites of this preparation not given
notes: also called Phospho-His-RSK3 (ERK2 and PDK1); not shown: His tag
Turning to B2, in test [2], the “fold decrease in binding affinity against unphosphorylated RSK3” value stood at 8 fold. In addition, the Kd in test [3] amounted to 12.7 nM.

B3: ERK-phosphorylated His-RSK3 (enzyme)
chain: B1 chain
modifications: phosphorylated in vitro with ERK2; sites of this preparation not given
notes: also called Phospho-His-RSK3 (ERK2); not shown: His tag
B3: the “fold decrease in binding affinity against unphosphorylated RSK3” value in test [2] was 5 fold. Also, in test [4], binding was put at a Kd of 7.3 nM.
